Test results reported in PMC11374702, “Structural basis of the Meinwald rearrangement catalysed by styrene oxide isomerase” (Nature Chemistry, 2024).

Target: styrene oxide isomerase (SOI), Pseudomonas sp. VLB120, wild type (Pseudomonas sp. VLB120, UniProt O50216)
Experiment: cell-based or functional assay

B1: nanobody (NB) raised against SOI, used for structure determination (VHH)
VHH: QGQLVESGGGLVQAGGSLRLSCTGSGRAFVTPAVGWFRQAPGKEREFVGTINWSGSHTSYADPVKGRFTISRDNAKETVYLQMNNLKPEDADVYYCASRGVSGRYEYWGKGTPVTVSS
For B1, which “catalytic efficiency (kcat/KM) for (S)-styrene oxide of the SOI–NB complex compared to the wild-type enzyme, coupled enzyme assay with EcALDH” value is on record?
Its value is 3 fold.
